Results taken from US20100166741A1 (Genentech, published 2010).

T1: human FcγRIIb extracellular domain, His-tagged GST fusion (human, UniProt P31994 43-217)
T1 construct: extracellular domain; also called hFcgRIIb; CD32B; not shown: C-terminal Gly/His6/GST tag
T1 sequence (looked up): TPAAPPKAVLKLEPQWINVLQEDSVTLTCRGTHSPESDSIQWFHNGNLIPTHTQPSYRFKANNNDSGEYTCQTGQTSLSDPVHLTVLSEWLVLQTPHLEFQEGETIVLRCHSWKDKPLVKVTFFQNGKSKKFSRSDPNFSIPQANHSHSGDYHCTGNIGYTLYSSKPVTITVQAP

T2: human FcγRIIa extracellular domain, His-tagged GST fusion (human, UniProt P12318 34-217)
T2 construct: extracellular domain; also called hFcgRIIa; CD32A; not shown: C-terminal Gly/His6/GST tag
T2 sequence (looked up): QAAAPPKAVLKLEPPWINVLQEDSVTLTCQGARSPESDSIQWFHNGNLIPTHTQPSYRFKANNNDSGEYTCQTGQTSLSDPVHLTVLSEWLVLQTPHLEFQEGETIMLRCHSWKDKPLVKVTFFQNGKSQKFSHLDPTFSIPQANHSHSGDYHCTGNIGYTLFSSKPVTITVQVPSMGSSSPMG


How the values were obtained:
[1] = target: T3, human FcγRI extracellular domain, His-tagged GST fusion (human, UniProt P12314 16-292); assay: ELISA, captured FcγR-GST, monomeric IgG
T3 construct: extracellular domain; also called hFcgRI; FcγRIA; not shown: C-terminal Gly/His6/GST tag

[2] = target: T1, human FcγRIIb extracellular domain, …; assay: ELISA, captured FcγR-GST, multimeric IgG
Method: (§1) FcγRs were expressed as recombinant fusion proteins of the extracellular domain of the receptor alpha chains with gly/his6/glutathione-s-transferase (GST). Assay plates coated with anti-GST and blocked with BSA were used to capture each FcγR. Plates were washed with wash buffer (0.05% polysorbate 20 in PBS, pH 7.4) after each incubation. […] Bound antibody was detected with the horseradish peroxidase (HRP)-conjugated F(ab′)2 fragment of a goat anti-human IgG F(ab′)₂ (Jackson ImmunoResearch; West Grove, Pa.). Plates were developed with tetramethylbenzidine (TMB) (KPL, Inc.; Gaithersburg, Md.) as the substrate. Absorbance was measured at a wavelength of 450 nm with a reference of 650 nm. Mean absorbance values from duplicate wells were plotted as a function of antibody concentration. Data were fit to a four-parameter equation to determine the concentration that yields 50% of maximum binding to each FcγR (EC₅₀) for each antibody.

[3] = target: T2, human FcγRIIa extracellular domain, …; assay: ELISA, captured FcγR-GST, multimeric IgG
Method: as §1

[4] = target: T4, miniBR3 displayed on M13 phage (epitope-tagged, fused to gene-8 major coat protein) (human; bacteriophage M13, UniProt Q96RJ3 17-42); assay: shotgun Ala scan, miniBR3 phage
T4 construct: range 17-42; also called p-miniBR3
From the text: Each “partial miniBR3” template was used as the template for Kunkel mutagenesis with mutagenic oligonucleotides designed to replace the template stop codons with the complementary region of miniBR3, while simultaneously introducing mutations at the desired sites. At the sites of mutation, wild-type codons were replaced with the corresponding shotgun alanine codon (Weiss, supra). Each of these two libraries allowed for mutations at 11 residues in miniBR3 with no mutated positions in common between libraries. Library 1 encoded shotgun codons at positions 17, 18, 20-23, 25, 27, 28, 30, and 33, while library 2 encoded shotgun codons at positions 26, 29, 31, 34, and 36-42. Each library contained 2×10⁹ members, allowing for complete representation of the theoretical diversity (>10⁴-fold excess).
The display selection was included in order to normalize the anti-BR3 antibody-binding selection for expression differences between library members. Phage eluted from each target were propagated in E. coli XL1-blue; amplified phage were used for selection against the same target as in the previous round. After two rounds of selection, 48 individual clones from each library and selection were grown in a 96-well format in 400 L of 2YT medium supplemented with carbenicillin and KO7 helper phage.
F-values were calculated as previously described (Weiss, supra-, Gordon, supra). […] Deleterious mutations have ratios >1, while advantageous mutations have ratios <1; boldface indicates a >10-fold effect.

| Binder | EC50 [1] [ng/mL] | EC50 [2] [µg/mL] | EC50 [3] [µg/mL] | F value, mutation at BR3 A22 [4] | F value, mutation at BR3 A34 [4] | F value, mutation at BR3 D26 [4] | F value, mutation at BR3 E23 [4] | F value, mutation at BR3 F25 [4] | F value, mutation at BR3 G36 [4] | F value, mutation at BR3 H31 [4] | F value, mutation at BR3 L27 [4] | F value, mutation at BR3 L28 [4] | F value, mutation at BR3 L37 [4] | F value, mutation at BR3 L38 [4] | F value, mutation at BR3 P18 [4] | F value, mutation at BR3 P21 [4] | F value, mutation at BR3 P41 [4] | F value, mutation at BR3 R30 [4] | F value, mutation at BR3 R39 [4] | F value, mutation at BR3 R42 [4] | further results |
| --- | --- | --- | --- | --- | --- | --- | --- | --- | --- | --- | --- | --- | --- | --- | --- | --- | --- | --- | --- | --- | --- |
| Hu9.1RF IgG1 2% G0-F (antibody, 2% G0-F (afucosylated) Fc glycan content, Same protein as Hu9.1RF IgG1; glycoform composition; also called 2% G0-F GLP-Hu9.1RF IgG1; 2% afucosylated Hu9.1RF IgG1) heavy: not shown light: DIQMTQSPSSLSASVGDRVTITCKSSQSLLYSSNQNNYLAWYQQKPGKAPKLLIYWASTRESGVPSRFSGSGSGTDFTLTISSLQPEDFATYYCQQYYTYPYTFGQGTKVEIKRTVAAPSVFIFPPSDEQLKSGTASVVCLLNNFYPREAKVQWKVDNALQSGNSQESVTEQDSKDSTYSLSSTLTLSKADYEKHKVYACEVTHQGLSSPVTKSFNRGEC | 3.92 | 0.96 | 0.3 | – | – | – | – | – | – | – | – | – | – | – | – | – | – | – | – | – | – |
| Hu9.1RF IgG1 4% G0-F (antibody, expected 4% G0-F (determined 3%), Mixture of 37% G0-F and 2% G0-F Hu9.1RF IgG1) heavy: not shown light: DIQMTQSPSSLSASVGDRVTITCKSSQSLLYSSNQNNYLAWYQQKPGKAPKLLIYWASTRESGVPSRFSGSGSGTDFTLTISSLQPEDFATYYCQQYYTYPYTFGQGTKVEIKRTVAAPSVFIFPPSDEQLKSGTASVVCLLNNFYPREAKVQWKVDNALQSGNSQESVTEQDSKDSTYSLSSTLTLSKADYEKHKVYACEVTHQGLSSPVTKSFNRGEC | 3.73 | 0.95 | 0.26 | – | – | – | – | – | – | – | – | – | – | – | – | – | – | – | – | – | – |
| Hu9.1RF IgG1 20% G0-F (antibody, expected 20% G0-F (determined 23%), Mixture of 37% G0-F and 2% G0-F Hu9.1RF IgG1) heavy: not shown light: DIQMTQSPSSLSASVGDRVTITCKSSQSLLYSSNQNNYLAWYQQKPGKAPKLLIYWASTRESGVPSRFSGSGSGTDFTLTISSLQPEDFATYYCQQYYTYPYTFGQGTKVEIKRTVAAPSVFIFPPSDEQLKSGTASVVCLLNNFYPREAKVQWKVDNALQSGNSQESVTEQDSKDSTYSLSSTLTLSKADYEKHKVYACEVTHQGLSSPVTKSFNRGEC | 3.74 | 0.82 | 0.17 | – | – | – | – | – | – | – | – | – | – | – | – | – | – | – | – | – | – |
| Hu9.1RF IgG1 10% G0-F (antibody, expected 10% G0-F (determined 8%), Mixture of 37% G0-F and 2% G0-F Hu9.1RF IgG1) heavy: not shown light: DIQMTQSPSSLSASVGDRVTITCKSSQSLLYSSNQNNYLAWYQQKPGKAPKLLIYWASTRESGVPSRFSGSGSGTDFTLTISSLQPEDFATYYCQQYYTYPYTFGQGTKVEIKRTVAAPSVFIFPPSDEQLKSGTASVVCLLNNFYPREAKVQWKVDNALQSGNSQESVTEQDSKDSTYSLSSTLTLSKADYEKHKVYACEVTHQGLSSPVTKSFNRGEC | 3.91 | 0.88 | 0.24 | – | – | – | – | – | – | – | – | – | – | – | – | – | – | – | – | – | – |
| Hu9.1RF IgG1 6% G0-F (antibody, expected 6% G0-F (determined 6%), Mixture of 37% G0-F and 2% G0-F Hu9.1RF IgG1) heavy: not shown light: DIQMTQSPSSLSASVGDRVTITCKSSQSLLYSSNQNNYLAWYQQKPGKAPKLLIYWASTRESGVPSRFSGSGSGTDFTLTISSLQPEDFATYYCQQYYTYPYTFGQGTKVEIKRTVAAPSVFIFPPSDEQLKSGTASVVCLLNNFYPREAKVQWKVDNALQSGNSQESVTEQDSKDSTYSLSSTLTLSKADYEKHKVYACEVTHQGLSSPVTKSFNRGEC | 4.12 | 0.91 | 0.23 | – | – | – | – | – | – | – | – | – | – | – | – | – | – | – | – | – | – |
| V3-1 (antibody, V domains shown) VH: EVQLVESGGGLVQPGGSLRLSCAASGFTISSNSIHWVRQAPGKGLEWVAWITPSDGNTDYADSVKGRFTISADTSKNTAYLQMNSLRAEDTAVYYCARRVCYNRLGVCAGGMDYWGQGTLVTVSS VL: DIQMTQSPSSLSASVGDRVTITCRASQDVSTAVAWYQQKPGKAPKLLIYSASFLYSGVPSRFSGSGSGTDFTLTISSLQPEDFATYYCQQSRITPPTFGQGTKVEIKR | – | – | – | 0.7 | 13 | 8.7 | 2.4 | 21 | 0.7 | 0.1 | 1.4 | 98 | 0.7 | 1.4 | 0.8 | 0.6 | 1.6 | 20 | 0.4 | 0.9 | F value, mutation at BR3 T17 [4]: 0.5; F value, mutation at BR3 T40 [4]: 0.6; F value, mutation at BR3 V20 [4]: 0.9; F value, mutation at BR3 V29 [4]: 92; F value, mutation at BR3 V33 [4]: 14 |
| 11G9 (antibody, V domains shown, also called chimeric 11G9) VH: DVQLQESGPSLVKPSQTLSLTCSVTGDSITSGYWNWIRKFPGNKLEYMGYISYSGSTYYNPSLKSRISITRDTSKNQFYLQLLSVTTEDTATYYCAGLDGLYWYFDVWGAGTLVTVSS VL: DIVMTQTPLSLPVSLGDQASISCRSSQSLVHSNGNTYLHWYLQKPGQSPKLLIYKVSNRFSGVPDRFSGSGSGTDFTLKISRVEAEDLGVYFCSQSTHVPPFTFGSGT | – | – | – | 45 | 32 | 8.5 | 6.9 | 38 | 1.8 | 2.8 | 1.1 | 0.4 | 0.7 | 0.9 | 0.5 | 40 | 1.7 | 1.7 | 3.1 | 0.9 | F value, mutation at BR3 T17 [4]: 0.5; F value, mutation at BR3 T40 [4]: 0.5; F value, mutation at BR3 V20 [4]: 1.1; F value, mutation at BR3 V29 [4]: 1; F value, mutation at BR3 V33 [4]: 24 |
| 2.1 (antibody, V domains shown, also called chimeric 2.1) VH: EVQLQESGPSLVKPSQTLSLTCSVTGDSITRGYWNWIRKFPGNKLEFMGYINYSGTTYYNPSLKSRISITRDTSKNQYYLQLNSVTTEDTATYYCATPHTYGAMDYWGQGTTLTVSA VL: DIVLTQSPVSLAVSLGQRATISCRASESVDDYGISFMHWYQQKPGQPPKLLIYRASDLESGIPARFSGSGSGTDFTLTINPVETDDVAIYYCQQTSKDPWTFGGGT | – | – | – | 3.2 | 62 | 6.1 | 9.6 | 49 | 14 | 0.6 | 0.8 | 0.1 | 0.1 | 0.9 | 0.5 | 1.9 | 0.7 | 10 | 0.5 | 1.8 | F value, mutation at BR3 T17 [4]: 0.6; F value, mutation at BR3 T40 [4]: 0.2; F value, mutation at BR3 V20 [4]: 3; F value, mutation at BR3 V29 [4]: 0.5; F value, mutation at BR3 V33 [4]: 10 |
